assay: yeast display, Sf9 membrane polyspecificity reagent, FACS + sequencing; frameworks hold sequencing errors
Outline: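 Galactose induction of a Saccharomyces cerevisiae BJ5465 synthetic nanobody display library ran 36–48 hours. The cells were then stained for 1 hour at 4 °C with 10% biotinylated, detergent-solubilized Sf9 membrane reagent, pulled down on streptavidin microbeads and FACS-sorted into low and high (top ~1%) gates on expression and reagent-binding fluorescence. Labels for polyreactivity follow the gate of origin.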

Sequence	polyreactivity (PSR sort gate)
QVQLVDSGGCLVQAGGSLRLSCDASGRISQNAMGWYRQAPGKERELVAAITFSGGSTYYADSVKGRFTISRDNAKNTVYLQMNSLKPEDTAVYYCNVRQYTDGLKYDYWGQGTQVTVSS	low polyreactivity
QVQLVDSGGDLVKAGGSLRLSCDASGSTFRDYDMGWYRQAPGKERELVDAITGSGSSTYYADSVKGRFTISRDNAKNTVYLQMNSLKPEDTAVYYCAATWVVSYRVYRSYYWGQGTQVTVSS	low polyreactivity
QVQLVDSGGGFVQAGGSLRLSCAASGSILAQKAMGWYRQAPGKERELVAAISWSGGRTYYADSVKGRFTISLDNAKNYVYLQMNCLKPEDTAVYYCNKVRRASTVHPDNYWGQGTQVTVSS	high polyreactivity
QVQLVDSGGGLDQAGGSLRLSCASSGSSSNTMLWDGKDRRLGKKGSWSSTNYADSVKGRFTISRDNAKNTVYLQMNSLKPEDTAVYYCNAYHDYITEFNYWGQGTQVTVSS	low polyreactivity
QVQLVDSGGGLVDAGGRLRLSCAASGRTFYAYPMGGYRQAPRTERELVAAITKRDGITFYADSVKGRFTISRDNAKNTVYLQMKSLKPEDTAVDYCDATGYVGGIYGHYPRGYWGQCTQVTVSS	high polyreactivity
QVQLVDSGGGLVHAGGRLGLSREDYGSTFPYYSMGWYRQAPGKERELVAAISGGGGSTYYADSVKGRFTISRDNAKNTVYLQMNSLKPEDSAVYYCNAYKYISPGDYWGQGTQVTVSS	high polyreactivity
QVQLVDSGGGLVKAGGSLRISCPASGITLKYYSMGWYRPSPGKERELVAAITRSGVGTYYADSVKGRFTISRDNAKNTVYLQMNSLKPEDTAVYYCAARGGWLQTKYDYWGQGTQVTVSS	high polyreactivity
QVQLVDSGGGLVQAAGSLRLSCAASGSIFIFNTMGWYRQAPGKESELVASISSSGSTYYADSVKGRFTISRDNAKNTVYLQMKSLKPEDTAVYYCAATYYRPAYYGSYYYWGQGTQVTVSS	low polyreactivity
QVQLVDSGGGLVQAGASLRLSCAASGSTFSSNVMGWYRQAPGKERELVAAITKTGGLTYYADSVKGRFTISRDNAKNTVYLNMNSLKPEDTSVYYCAAKSKRRGTTSVYYYWGQGTQVTVSS	high polyreactivity
QVQLVDSGGGLVQAGGILRLSCASSGITFPGYDMGWYRQAPGKERDLVARISRSGGSTYYADSVKGRFTISRDNAKNTVYLQMNSLKPEETAVYYCAAGAYRSGGYRFDYWGQGTQVTVSS	low polyreactivity
QVQLVDSGGGLVQAGGNLRLSCAPSGYTFGKYAMGWYRQAPGKERELVAGISSRGGSTYYADSVKGRFTISRDNAKNTVYFQMNSLKPEDTAVYYCAAVAYTGGPRKLGFYYWGQGTQVTVSS	high polyreactivity
QVQLVDSGGGLVQAGGRLRLSCAASGLIFSYYARGRYRQGPRKERELVPAISSGGRTSYADSVKGRFTISRDNEKNTVYLKMNSVKPEASAVYYCAAYPVYNRPGDYWGQGTQVTVSS	high polyreactivity
QVQLVDSGGGLVQAGGRLRLSRAASGSIFRRYPMGWYRQAPGKERELVAAISRNSGRTYYADSVKGRFTISRDNAKITDYLQMNSLKPEDTAVYYCNADTSLAANGKFDYWGQGTQGTVSS	high polyreactivity
QVQLVDSGGGLVQAGGSISLSCAPSGFTIVGNAMGWYRLAPGKERELVAAISSGDDTNDADSVKGRFTISRDNAKNTVYLQMYSLKPEDTAVYYCAAAYYYYVSGWFDYWGQGTQVTVSS	low polyreactivity
QVQLVDSGGGLVQAGGSLRIIRAASGSISGYNAMGWYRQAPGKERELVAAIYRSDGKDYADSVKGRFTISRDNAKNTVYLQMNSMIPEDTAVYYCIAVKWSVVGYVLGFYRDDYWGQGTQVTVSS	low polyreactivity
QVQLVDSGGGLVQAGGSLRISCAASGSTFSINTMGTYRQAPGKERELVAAITTRGSSTYYADSVKGRFTISRDNAKNTVYLKMNSLKPEDTAVYYFNAPYRVTGGRYRWYDYWGQATQVTVSS	high polyreactivity
QVQLVDSGGGLVQAGGSLRISCPASGRIIDLNARGWYRQAPGKERELVAAISYSGGRTFYADSVKGRFTISRDNAKNTVDLQMISLKPEVTAVYYCNVRRGDRFVRHDYWGQGSQVTVSS	low polyreactivity
QVQLVDSGGGLVQAGGSLRLICAASGITFYYYAMGWYRQAPGKERELVAAISSRGGSTYYADSVKGRFTISRDNAKNTVYLQMNSLKPEDTAVYYWAALYGVSEEDDYWGQGTQVTVSS	high polyreactivity
QVQLVDSGGGLVQAGGSLRLICAASGRTIDNYAMGWYRQAPGKERELVAVISRSGDRRYYPDSEKGRFTISRDNAKNTVYLPMKSLKPEDTAVYYCNAVYGRSIYDGLFYTYDYWGQCTQVTVSS	high polyreactivity
QVQLVDSGGGLVQAGGSLRLICAASGSIFGKNAMGWYRQAPGKERELVAAISKRGGTTYYADSVKGRFTISRDNAKNTFYLLMNSLKPEDTAVYYCAAYYYVHRSSHYLSPYDFWGQVTQVTVSS	high polyreactivity
QVQLVDSGGGLVQAGGSLRLRCAASGITYSYYTKGWYRQAPGKERDLVAGITRSGSTYYADSVKGRFTISRDNAYNTVYLQMNSLKPEDTAVYYCNARARGAYNRPNYPRYYYWGQGTQVTVSS	high polyreactivity

Sequence	polyreactivity (PSR sort gate)
QVQLVDSGGGLVQAGGSLRLRCAASGRNFGTNAMGWYRPAPGKERELVATITRGGGNTYYADSVKGRFTISRDNAKNTVYLQMNSLKPEDTAVYYCAAGVIFYVGTRVYAYDYWGQGTQLTVSS	low polyreactivity
QVQLVDSGGGLVQAGGSLRLRSAASGFTFCTYDMGWYRQAPGKERELVAAIDSGGSTYYADSVKGRFTISRDNAKNNVYLQMNSLKPEDTAVYYCNKVVDYFWYVEYDYWGQVTQVTVSS	low polyreactivity
QVQLVDSGGGLVQAGGSLRLSCAASGFIFSDYAMGWYRQAPGKEREFVAAISSGGSTYYADSVKGRFTISRDNAKNTVYLQMNSLKPEDTAVYYCNALWYREMDYWGQGTQVTVSS	high polyreactivity
QVQLVDSGGGLVQAGGSLRLSCAASGFIFVDYVMGWSRQAPGKERELVAAITRGGSTNYADSVKGRFTISRDNAKNTVYLQMNSLKPEDTAVYYCAVRWYRKYNYWGQGTQVTVSS	high polyreactivity
QVQLVDSGGGLVQAGGSLRLSCAASGFTFYAYGRGWNRQAPGKERELVATITWCGGNTYYADSVKGRFTISRDNAKNTVYLQMNSLKPEDTAVYYCAARLPSPIRPSRGYYDYWGQGTQVTVSS	low polyreactivity
QVQLVDSGGGLVQAGGSLRLSCAASGFTSTRYSMGWYREAPGKERELVAAISYGGGDTYYADSVKGRFTISRDNPKNTVYLQMNSLKPEDTAVYYCNARGRDRKSERRAFDYWGQGTQVTVSS	high polyreactivity
QVQLVDSGGGLVQAGGSLRLSCAASGGTFTAYTMGWYRQAPGKERELVAAITGDTSTNYADSVKGRFTISRDNAKNTVYLQMNSLKPVDTAVYYCAADVPRSYWRGYDYWGQGTQVTVSS	low polyreactivity
QVQLVDSGGGLVQAGGSLRLSCAASGINFQGNAMGWYRQAPGKERELVASITAGGDTTYYADSVKGRFTISRDNAKNTVYLQMNSLKPEDTAVYYCAVDSWLDADDSYPDSILVDYWGQGTQVTVSS	low polyreactivity
QVQLVDSGGGLVQAGGSLRLSCAASGITFYRYTMGWYRQGPGKERELVATITSGASTSYADSVKGRFTISRDNAKNTVYLQMNCLKPEDTAVYYCAARRTRVTGRYSVYAFDYWGQGTQVTVSS	low polyreactivity
QVQLVDSGGGLVQAGGSLRLSCAASGLIIWRNAMGWYRQAPGKERELVAAITYSGSRTYYADSVKGRFTISRDNAKNTVYLLMNSLKPEDTAVYYCNADYYWYPYEDDNWGQGTQVTVSS	low polyreactivity
QVQLVDSGGGLVQAGGSLRLSCAASGLIVFYAMGWYRQAPGKERELVAGISSGGNTNYADSVKGRFTISRDNAKNTFYLQMNSMKPQDTSVYYCAAVYLLSSYDFWGQGTQVTVSS	high polyreactivity
QVQLVDSGGGLVQAGGSLRLSCAASGLTCRKYTMGWYRQAPGKERELVAAISFRGGSTYYADSVKGRFTISRDNAKNTVYLQMNSLKPEDTAVYYCNARKRYSTDPGDYWGQGTQVTVSS	high polyreactivity
QVQLVDSGGGLVQAGGSLRLSCAASGLTITVYVMGWYRQAPGKERELVAAIDWSGGSTYYADSVKGRFTISRDNAKNTVYLQMNSLKPEDTAVYYCASETTDYAYYGFTYDYWGQGTQVTVSS	low polyreactivity
QVQLVDSGGGLVQAGGSLRLSCAASGRIFFANAMGWYRQAPGKERELVAAISWRGGSTYYADSVKGRFTISRDNAKNTVYLQKNSLKPEDTAVYYCAATSRGTDYWGQGTQVTLSS	high polyreactivity
QVQLVDSGGGLVQAGGSLRLSCAASGRIFIVNPMGRYRQAPGKEREFVAAITSRGGITYYADSVKGRFTISRDNAKNTVYLQMNTLKPEDTAVYYFAAGYISWGSGNWGVTPYDYWGQGTQVTVSS	high polyreactivity
QVQLVDSGGGLVQAGGSLRLSCAASGRIFPWYAMGWYRQAPGKEMELVAAINWRAGLTYYADSVKGRFTISRDYAKNTVYLQMNSLKPEDTAVYYCNARSGRGQAYGYWGQGTQVSVSS	high polyreactivity
QVQLVDSGGGLVQAGGSLRLSCAASGRIFRDNCMVCYRQAPGKERELVAAIRRSGGSTYYADSVKGRFTISRDNAKNSVYLQMNSLIPEDTAVYYCATPPYPGREYWGQGSQVTVSS	high polyreactivity
QVQLVDSGGGLVQAGGSLRLSCAASGRIFYPYAMGWYREATGKERELVAAMTRRTASTYYADSVKGRFTISRDNAKNTVYLQMNSLKPQDTAVYYCAAVSYLKRPYYAGYYYWGQGTQVTVSS	high polyreactivity
QVQLVDSGGGLVQAGGSLRLSCAASGRNFLWNAMGWDRQAPGKERELVAGISWRGSSTYYAVSVKGRFTISRDNAKNTVYLQMNSLKPEDTAVYYCAAQGRPYRGQRTGAYGYWGQGTQVTVSS	high polyreactivity
QVQLVDSGGGLVQAGGSLRLSCAASGRTFGYYAMGWYRQAPGKERELVAAISGSGGSTYYADSVKGRFTISRDNAKNTVYLQMNSLIPEDTAVYYCIVYPPYAMDYWGQGTQVTVSS	high polyreactivity

Source: the nanobody polyreactivity screen of Harvey et al. (2022)
